Here are results for one substance from US20170258870.

The test system of this data set is Helix 5 TAT peptide.

For recombinant GC mutant N370S, the “GC enzyme activity (4-MU substrate)” value is “the helix 5 TAT-peptide led to a four-fold increase in the activity of the N370S mutant”.
